Reference: PMC9200798
Blank lines part the entries; values can stand above or below the substance they belong to.

Legend:
P45520 = experiment: microfluidics-coupled TIRF microscopy of single filaments; barbed end depolymerization of ADP-Pi filaments, F-buffer with KCl replaced by 40 mM K2HPO4 and 10 mM KH2PO4; details: other: microfluidics-coupled TIRF microscopy of single filaments
[1] = target: Leishmania major actin (Leishmania major) (UniProt P45520)
[2] = target: rabbit skeletal muscle α-actin (rabbit (Oryctolagus cuniculus)) (UniProt P68135)
[3] = target: Leishmania major actin (Leishmania major) (UniProt P45520); experiment: microfluidics-coupled TIRF microscopy of single filaments; pointed end depolymerization: pre-polymerized ADP-F-actin injected over 10 nM biotin-gelsolin held on neutravidin, F-buffer with 0.4 mM CaCl2, then F-buffer
[4] = target: Leishmania major actin (Leishmania major) (UniProt P45520); experiment: microfluidics-coupled TIRF microscopy of single filaments; barbed end polymerization from surface-anchored spectrin-actin seeds, G-actin with equimolar profilin in F-buffer (5 mM Tris-HCl pH 7.4, 50 mM KCl, 1 mM MgCl2); segmented, mixed or ATP-ATTO-488 filaments
[5] = target: Leishmania major actin (Leishmania major) (UniProt P45520); remark: listed apart in the source

Substance: Leishmania major actin
barbed end depolymerization rate, ADP-Pi-actin (P45520): ~6 subunits/s

Substance: Leishmania major twinfilin (natural protein)
barbed end depolymerization rate of ADP-LmActin filaments without actin monomers, with LmTwf (0.1 and 1 μM) against buffer only [1]: 3 subunits/s | barbed end polymerization rate with 1 μM LmActin, 1 μM LmProfilin and 0–4 μM LmTwf; net depolymerization above 0.2 μM LmTwf [1]: 8 subunits/s | depolymerization rate of ADP-RbActin filaments with LmTwf [2]: 0.5 subunits/s

pointed end depolymerization rate, ADP-actin [3]: 3.5 subunits/s | barbed end polymerization rate constant (with equimolar LmProfilin) (subunits/s/μM) [4]: 6
Substance: Leishmania major actin (from UniProt P45520 2-376) (natural protein)

global fragmentation rate of LmActin filaments by LmCofilin against RbActin filaments by mammalian cofilin-1, microfluidics-coupled TIRF microscopy [5]: 100 fold
Substance: Leishmania major cofilin (natural protein)
